According to US20190343926A1 (priority 2017, published 2019):

Assays:
[1] = 35 mU/kg IV every six minutes, ten bursts
[2] = 0.25 mU/kg/min continuous IV insulin infusion; cited from earlier work
[3] = cited from earlier work

## insulin
[1]
  burst at which steady state (Cmax and Cmin bands) is reached: fourth burst
[2]
  glucose decrease at steady state: about 25%
[3]; 40 mU/kg IV insulin over 3 minutes, over about 30 minutes
  drop in glucose levels: almost half
[3]; 40 mU/kg IV over 3 minutes
  time for blood insulin to drop from 1000 to 500: ~3 min
